Six molecules from publication PMC4288177 can be followed below.

Series [1] deals with T1, DnaA (AaDnaA, truncated) (Aquifex aeolicus, UniProt O66659 77-399).
T1 sequence: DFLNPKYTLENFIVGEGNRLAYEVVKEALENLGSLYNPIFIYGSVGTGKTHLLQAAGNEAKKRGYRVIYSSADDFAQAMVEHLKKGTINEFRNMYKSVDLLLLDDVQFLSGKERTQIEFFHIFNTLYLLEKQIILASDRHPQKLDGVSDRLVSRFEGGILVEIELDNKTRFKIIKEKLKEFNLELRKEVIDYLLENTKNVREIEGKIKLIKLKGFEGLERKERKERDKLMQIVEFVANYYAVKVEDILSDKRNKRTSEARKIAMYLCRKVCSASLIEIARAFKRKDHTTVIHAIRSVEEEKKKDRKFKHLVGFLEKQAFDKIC
The series is described as follows: smPIFE.

The target of series [2] is T1, DnaA (AaDnaA, truncated). The series is described as follows: smPIFE. This is another data set of the same source.
Series [3] has as its target T1, DnaA (AaDnaA, truncated). The series is described as follows: smPIFE. This is another data set of the same source.
Series [4] deals with T1, DnaA (AaDnaA, truncated). The series is described as follows: smFRET.
Series [5] deals with T1, DnaA (AaDnaA, truncated). The series is described as follows: smPIFE. This is another data set of the same source.
In series [6] the target is T1, DnaA (AaDnaA, truncated). The series is described as follows: smPIFE. This is another data set of the same source.

B1: pdT21 (Cy3 only, PIFE) (mixed)
DNA 1: TGGCGACGGCAGCGAGGCTTTTTTTTTTTTTTTTTTTTT
DNA 2: GCCTCGCTGCCGTCGCCA
In the case of B1, the binding result with DnaA (AaDnaA, truncated) [1] is “binds”.

B2: pdTcontrol (Cy3 only) (mixed)
DNA 1: TGGCGACGGCAGCGAGGCTTTTTTTTTTTTTTTTTTTTT
DNA 2: GCCTCGCTGCCGTCGCCA
modifications: C6-amino-dT at position 19
Consider B2, for which, in the series with DnaA (AaDnaA, truncated) [2], the binding result is “binds”.

B3: pdT3+17 (Cy3 only) (mixed)
DNA 1: TGGCGACGGCAGCGAGGCTTTTTTTTTTTTTTTTTTTTT
DNA 2: GCCTCGCTGCCGTCGCCA
modifications: C6-amino-dT at position 22
On to B3, for which the binding result in the series with DnaA (AaDnaA, truncated) [3] was “binds”.

B4: pdT21 (mixed)
DNA 1: TGGCGACGGCAGCGAGGCTTTTTTTTTTTTTTTTTTTTT
DNA 2: GCCTCGCTGCCGTCGCCA
Take B4: the binding result in the series with DnaA (AaDnaA, truncated) [4] is given as “binds”.

B5: 5'-OP21 (Cy3 only) (mixed)
DNA 1: TTTTTTTTTTTTTTTTTTTTTCGGAGCGACGGCAGCGGT
DNA 2: ACCGCTGCCGTCGCTCCG
Take B5: the binding result with DnaA (AaDnaA, truncated) [5] is “binds”.

B6: 3'-OP21 (Cy3 only) (mixed)
DNA 1: TTTTTTTTTTTTTTTTTTTTTCGGAGCGACGGCAGCGGT
DNA 2: ACCGCTGCCGTCGCTCCG
modifications: C6-amino-dT at position 21
As to B6, the binding result with DnaA (AaDnaA, truncated) [6] is “binds”.
